Assay results taken from patent US12018066 (TRIAD NATIONAL SECURITY, dated 2024).

Legend:
[1] = biological target: SARS-CoV spike protein receptor binding domain (RBD1) (SARS-CoV, UniProt P59594 306-527); assay: ELISA, crude human minibody
[2] = biological target: T1, SARS-CoV-2 spike protein receptor binding domain (RBD2) (SARS-CoV-2, UniProt P0DTC2 319-537); assay: SPR
[3] = biological target: T1, SARS-CoV-2 spike protein receptor …; assay: SPR, immobilized antibody, RBD injected, 1:1 fit

B1: E08 human minibody (scFv-human Fc) (Fc fusion)
scFv-Fc: SYVLTQPPSVSVAPGKTARITCGGNNIGWKSVHWYQQKPGQAPVLVVYDDSDRPSGIPERFSGSNSGNTATLTISRVEAGDEADYYCQVWDSSSDLVVFGGGTKLTVLSGGSTITSYNVYYTKLSSSGTQVQLVQSGAEVKKPGSSVKVSCKASGGTFSSYAISWVRQAPGQGLEWMGGIIPIFGTANYAQKFQGRVTITADESTSTAYMELSSLRSEDTAVYYCARASGRWLQFWHYYGMDVWGQGTTVTVSS
binding result [1]: binds

B2: H01 human minibody (scFv-human Fc) (Fc fusion)
scFv-Fc: QPGLTQPPSVSLAPGQTARITCGGNNIGSKSVHWYQQKPGQAPVLVVYDDSDRPSGIPERFSGSNAGNTATLTISRVEAGDEADYYCQVWDSRSDQYVFGTRTKLTVLSGGSTITSYNVYYTKLSSSGAQVTLKESGPVLVKPTETLTLTCTVSGFSLSNARMGVSWIRQPPGKALEWLAHIFSNGEKSYSTSLKSRLTISKDTSKSQVVLTMTNMDPVDTATYYCARTLDYYDSSGYLVGGAFDIWGQGTMVTVSS
binding result [1]: no binding

B3: H01 minibody (scFv-Fc) (Fc fusion)
chain: QPGLTQPPSVSLAPGQTARITCGGNNIGSKSVHWYQQKPGQAPVLVVYDDSDRPSGIPERFSGSNAGNTATLTISRVEAGDEADYYCQVWDSRSDQYVFGTRTKLTVLSGGSTITSYNVYYTKLSSSGAQVTLKESGPVLVKPTETLTLTCTVSGFSLSNARMGVSWIRQPPGKALEWLAHIFSNGEKSYSTSLKSRLTISKDTSKSQVVLTMTNMDPVDTATYYCARTLDYYDSSGYLVGGAFDIWGQGTMVTVSS
Kd [2]: 281 nM
Kd [3]: 281 nM

B4: B04 human minibody (scFv-human Fc) (Fc fusion)
scFv-Fc: SYVLTQPPSVSVAPGKTARITCGGNNIGIRSVHWYQQKPGQAPVLVIYYDSDRPSGIPERFSGSKSGNTATLTISRVEAGDEADYYCQVWDSSSDHPVFGGGTKLTVLSGGSTITSYNVYYTKLSSSGTQVQLVESGAEVKKPGASVKVSCKASGYTFTRYYMHWVRQAPGQGLEWMGIINPSGGTTSYAQKFQGRVTMTRDTSTSTVYMELSSLRSEDTAVYYCARSFGELTSFDYWGQGTLVTVSS
binding result [1]: no binding

B5: B10 human minibody (scFv-human Fc) (Fc fusion)
scFv-Fc: QSVVTQPPSVSGAPGQRVTISCTGSSSNIGSRTVNWYQQLPGTAPKLLIYANNQRPSGVPDRFSGSKSGTSASLAISGLQSEDEADYYCAAWDDSLNGYVFGTGTKLTVLSGGSTITSYNVYYTKLSSSGTQVQLQQSGPGLVKPSQTLSLTCAISGDSVSSNSATWNWIRQSPSRGLEWLGRTYYGSKWHSDYAVSVKSRITINPDTSKNQISLHLNPVTPEDTAVYYCARGRSYAFDIWDQGTMVTVSS
binding result [1]: no binding

B6: D04 human minibody (scFv-human Fc) (Fc fusion)
scFv-Fc: SYVLTQPPSVSVAPGKTARITCGGNNIGWKSVHWYQQKPGQAPVLVVYNDNDRPSGVPERFSGSNSGNTATLTISRVVAGDEADYYCQVWDSSSDHVLFGGGTKLTVLSGGSTITSYNVYYTKLSSSGTQVQLVQSGAEVKKPGSSVKVSCKASGGTFSSYAISWVRQAPGQGLEWMGGIIPIFGTANYAQKFQGRVTITADESTSTAYMELSSLRSEDTAVYYCARASGRWLQFWHYYGMDVWGQGTTVTVS
binding result [1]: no binding

B7: D07 human minibody (scFv-human Fc) (Fc fusion)
scFv-Fc: SYELTQPPSVSVAPGETARMTCGGNNIGTKGVHWYQQKPGQAPVLVVYDDSDRPSGIPERFSGSNAGNTATLTISRVEAGDEADYYCQVWDSRSDQYVFGTRTKLTVLSGGSTITSYNVYYTKLSSSGAQVTLKESGPVLVKPTETLTLTCTVSGFSLSNARMGVSWIRQPPGKALEWLAHIFSNGEKSYSTSLKSRLTISKDTSKSQVVLTMTNMDPVDTATYYCARTLDYYDSSGYLVGGAFDIWGQGTMVTVSS
binding result [1]: no binding

B8: D10 human minibody (scFv-human Fc) (Fc fusion)
scFv-Fc: QSVVTQPPSASGSPGQTVTISCSGNSANIGGNPVNWYQQLPGTAPKLLIYSNNQRPSGVPDRFSGSKSGISASLAISGLQSEDEADYYCAAWDDSLNGVIFGGGTKLTVLSGGSTITSYNVYYTKLSSSGTQVQLVQSGAEVKKPGESLKISCKGSGYSFTSYWIGWVRQMPGKGLEWMGIIYPGDSDTRYSPSFQGQVTISADKSISTAYLQWSSLKASDTAMYYCARRHSGSYSGAFDIWGQGTMVTVSS
binding result [1]: no binding

B9: R04 minibody (scFv-Fc) (Fc fusion)
chain: EIVMTQSPSSLSASVGDRVTITCQASQDISNYLNWCQQKPGKAPKLLIYDASNLETGVPSRFSGSGSGTGFTFTISSLQPEDFATYYCQQSYSTPYTFGQGTKVEIKSGGSTITSYNVNYTKLSSSGAQVQLQQSGPGLVKSSQTLSLTCAISGDSVSSNGAAWHWIRQSPSRGLEWLGRTYYRSGWYNDYAVSVKSRITINQDTSKNQFSLQLNSVTPEDTAVYFCAREGGGGRMDVWSQGTTVTVSS
Kd [2]: 128 nM
Kd [3]: 128 nM

B10: R04 IgG1 (antibody, V domains shown)
VH: QVQLQQSGPGLVKSSQTLSLTCAISGDSVSSNGAAWHWIRQSPSRGLEWLGRTYYRSGWYNDYAVSVKSRITINQDTSKNQFSLQLNSVTPEDTAVYFCAREGGGGRMDVWSQGTTVTVSS
VL: EIVMTQSPSSLSASVGDRVTITCQASQDISNYLNWCQQKPGKAPKLLIYDASNLETGVPSRFSGSGSGTGFTFTISSLQPEDFATYYCQQSYSTPYTFGQGTKVEIK
Kd [2]: 190000 nM
Kd [3]: 190000 nM

B11: B04 minibody (scFv-Fc) (Fc fusion)
chain: SYVLTQPPSVSVAPGKTARITCGGNNIGIRSVHWYQQKPGQAPVLVIYYDSDRPSGIPERFSGSKSGNTATLTISRVEAGDEADYYCQVWDSSSDHPVFGGGTKLTVLSGGSTITSYNVYYTKLSSSGTQVQLVESGAEVKKPGASVKVSCKASGYTFTRYYMHWVRQAPGQGLEWMGIINPSGGTTSYAQKFQGRVTMTRDTSTSTVYMELSSLRSEDTAVYYCARSFGELTSFDYWGQGTLVTVSS
Kd [2]: 56.8 nM
Kd [3]: 56.8 nM

B12: B10 minibody (scFv-Fc) (Fc fusion)
chain: QSVVTQPPSVSGAPGQRVTISCTGSSSNIGSRTVNWYQQLPGTAPKLLIYANNQRPSGVPDRFSGSKSGTSASLAISGLQSEDEADYYCAAWDDSLNGYVFGTGTKLTVLSGGSTITSYNVYYTKLSSSGTQVQLQQSGPGLVKPSQTLSLTCAISGDSVSSNSATWNWIRQSPSRGLEWLGRTYYGSKWHSDYAVSVKSRITINPDTSKNQISLHLNPVTPEDTAVYYCARGRSYAFDIWDQGTMVTVSS
Kd [3]: 344 nM

B13: D04 minibody (scFv-Fc) (Fc fusion)
chain: SYVLTQPPSVSVAPGKTARITCGGNNIGWKSVHWYQQKPGQAPVLVVYNDNDRPSGVPERFSGSNSGNTATLTISRVVAGDEADYYCQVWDSSSDHVLFGGGTKLTVLSGGSTITSYNVYYTKLSSSGTQVQLVQSGAEVKKPGSSVKVSCKASGGTFSSYAISWVRQAPGQGLEWMGGIIPIFGTANYAQKFQGRVTITADESTSTAYMELSSLRSEDTAVYYCARASGRWLQFWHYYGMDVWGQGTTVTVS
Kd [3]: 124 nM

B14: D07 minibody (scFv-Fc) (Fc fusion)
chain: SYELTQPPSVSVAPGETARMTCGGNNIGTKGVHWYQQKPGQAPVLVVYDDSDRPSGIPERFSGSNAGNTATLTISRVEAGDEADYYCQVWDSRSDQYVFGTRTKLTVLSGGSTITSYNVYYTKLSSSGAQVTLKESGPVLVKPTETLTLTCTVSGFSLSNARMGVSWIRQPPGKALEWLAHIFSNGEKSYSTSLKSRLTISKDTSKSQVVLTMTNMDPVDTATYYCARTLDYYDSSGYLVGGAFDIWGQGTMVTVSS
Kd [3]: 134 nM

B15: D11 minibody (scFv-Fc) (Fc fusion)
chain: SYELTQPPSVSVAPGQTARITCGGNNIGSKSVHWYQQKPGQAPVLVVYDDSDRPSGIPERFSGSNSGNTATLTISGTQAMDEADYYCQAWDSSTAYVFGSGTKLTVLSGGSTITSYNVYYTKLSSSGTQVQLEESGGGLVQPGGSLRLSCAASGFTFSNYAMSWVRQAPGKGLEWVSAISGSGGATFHADSVKGRFTISRDNSKNTLYLQMNSLRAEDTAVYYCARRVGYDSSGYYWSDAFDIWGQGTMVTVSS
Kd [3]: 798 nM

B16: H02 minibody (scFv-Fc) (Fc fusion)
chain: QSVVTQPPSVSAAPGQKVTISCSGSSSNIGNNYVSWYQQLPGTAPKLLIYRDTQRPSGVPDRFSGSKSGTSASLAISGLRSEDEADYYCATWDKSLSGPVFGGGTKVTVLSGGSTITSYNVYYTKLSSSGTQVQLQQSGPGLVKPSQTLSLTCAISGDSVSSNSAAWNWIRQSPSRGLEWLGRTYYRSKWYNDYAVSVKSRIIINPDTSKNQFSLQLNSVTPEDTAVYYCARQDNNPYYGLDVWGQGTTVTVSS
Kd [3]: 15.5 nM

B17: H03 minibody (scFv-Fc) (Fc fusion)
chain: SYELTQPPSVSVAPGQTARITCGGNNIGSKSVHWYQQKPGQAPVLVIYYDSDRPSGIPERFSGSNSGNTATLTISRVEAGDEADYYCQVWDSSSALYVFGTRTKVTVLSGGSTITSYNVYYTKLSSSGTQVQLVESGGGLVQPGRSLRLSCAASGFTFDDYAMHWVRQAPGKGLEWVSGISWNSGSIGYADSVKGRFTISRDNAKNSLYLQVNSLRAEDTAVYYCARELIVGTTSPQTDAFDIWGQGTMVTVSS
Kd [3]: 117 nM

B18: R09 minibody (scFv-Fc) (Fc fusion)
chain: QPGLTQPPSVSVSPGQTASITCSGDKLGYKYVSWYQQKPGQSPVLVIYEDTKRPSGIPKRFSGSNSGNTATLTICGTQAVDEADYYCQAWDSSVVFGGGTKLTVLSGGSTITSYNVYDTKLSSSGTQVQLVQSGAEVKKPGASVKVSCKASGYTFTSYGISWVRQAPGQGLEWMGWISAYNGNTNYAQKFQGRVTMTTDTSTSTAYMELRSLRSDDTAVYYCARDMELRPPFDYWGQGTLVTVSS
Kd [3]: 539 nM

B19: G07 minibody (scFv-Fc) (Fc fusion)
chain: QSVLIQPPSASGTPGQRVTISCSGSNSNFGSNSVSWYQQRPGTAPKLLIEGNNQRPSGVPERFSGSKSGTSASLAISGLQSEDEAEYSCASWDDSLNAFVFGPGTKLTVLSGGSAITSYNVYYTKLSSSGTQVQLVQSGAEVKKPGESLKISCKGSGYSFTSYWIGWVRQMPGKGLEWMGIIYPGDSDIRYSPSFQGQVTISADKSFSSAYLQWSSLKASDTAMYYCARLGATGAFDIWGQGTTVTVSS
Kd [2]: 63900 nM
